Measurements from the DeepSol protein solubility set.

Assay: soluble on expression in E. coli; label from the status in PepcDB or PDB records

**Q.** For “GMYEEWKIVKREAPILGNDQLIENIWKMKREDSPYDIISLHKVNLIGGGNDAVLILPGTWSSGEQLVTISWNGVHYTIPDYRKSIVLYLARNGFNVYTIDYRTHYVPPFLKDRQLSFTANWGWSTWISDIKEVVSFIKRDSGQERIYLAGESFGGIAALNYSSLYWKNDIKGLILLDGGPTKHGIRPKFYTPEVNSIEEMEAKGIYVIPSRGGPNNPIWSYALANPDMPSPDPKYKSISDFLMDSLYVTGSANPYDYPYSKKEDMFPILASFDPYWPYRLSLERDLKFDYEGILVPTIAFVSERFGIQIFDSKILPSNSEIILLKGYGHLDVYTGENSEKDVNSVVLKWLSQQR”, which “soluble on expression in E. coli” value is on record?
**A.** soluble

**Q.** With “GNGIPPYAGAGDPARFTFNIVQNAKYWDKEHQYESLSDIRLHKFNAPAPGTFDFDESPVDGKKLELVSSKKIGFDGKFAGIAHDGEQFGLVTQDGSLFFTKDFDKATSFAHLDVPNGSDIHNTVDAAFFEPGGLAGIAQNKTLYGALVTKDVDDYIAWKDFLESSGDVMPLFDSKGRPELRTIRARMQYTMSVASDAKSDTFITVSVPHERAEQIVVSEFSKKDNKLVREGVLDGDYYPVGADMRGDVLYLLSKQHNCLVRVNMKDFTVKDAANLPVEGSDLAIVKDRAYILDGDTVHEVKL” as the sequence, how does the “soluble on expression in E. coli” value read?
**A.** not soluble

**Q.** Which “soluble on expression in E. coli” value does the source give for “GPGMATEEMKKLATVMAIGTANPPNCYYQADFPDFYFRVTNSDHLINLKQKFKRLCENSRIEKRYLHVTEEILKENPNIAAYEATSLNVRHKMQVKGVAELGKEAALKAIKEWGQPKSKITHLIVCCLAGVDMPGADYQLTKLLDLDPSVKRFMFYHLGCYAGGTVLRLAKDIAENNKGARVLIVCSEMTTTCFRGPSETHLDSMIGQALFGDGAAAVIVGADPDLTVERPIFELVSTAQTIVPESHGAIEGHLLESGLSFHLYKTVPTLISNNIKTCLSDAFTPLNISDWNSLFWIAHPGGPAILDQVTAKVGLEKEKLKVTRQVLKDYGNMSSATVFFIMDEMRKKSLENGQATTGEGLEWGVLFGFGPGITVETVVLRSVPVIS” here?
**A.** soluble

**Q.** With “GPGSMAAGNSISVKVDVPSQVKGQGTLEMSYYIYPITMRLPGFMSDARFNRRYTDFETLRGQLCATYWYCIVPPIPEKESVQDKLGKLPRMVASAKETTASEGDLLEYRRISLRRFLQRLAYHPILGKSDLLQKFTNDNEWRQCIRDPVKPPR” as the sequence, how does the “soluble on expression in E. coli” value read?
**A.** not soluble

**Q.** Which “soluble on expression in E. coli” value does the source give for “GPGSMADSIKKHFQQENEVKDTGCMTSALSYLPIYINTDKLPENMLVGAPLFYPPQMAVLPLSWTDAVGFERSCFITCEGPFPHMTANGKDPHDMSFFFLQYMQRVPFMQSTAERGLPIKQLQDVGLLCCTDAFSHIVTDPAERVVVIFGRNGPYFTSLVITPCTMPEKNVVGNIQLANQISLQDLQKLLDACCPTPLVDEIRLAGTSAGTLQGKLHIACRYGNRVVQFTAASALTVRSARDNEDFIFSLEGDVLAQKRIVFDAATIDALISGKTLDELFSCPGPQCMRVSSLVQLIHMEDLTEISHNLGNGASNGDVTREINLKVSGSRLLLSAGEVSVVFHHAHLGVHFPINSHHGVICEPVLTTDLCLMYYPLGSTAALPNAMMRRVRQLPPTWERSLHTDDALRHNALFHFTDWMRGSVPCITCDLSGFRCAQLYEEKDGMSCRTYVVPLAEEIMVLRWETSTCDWEQHLPHLQKFIDTLHLEVPTA” here?
**A.** not soluble

**Q.** Which “soluble on expression in E. coli” value does the source give for “GPGSMAFHPRDAFILHQEQIQRYNEGDEVDTSAEQKVQIELQRLTDSESTVTIAFSHEDHTLGNPLRHVLMQNREVTSAGYAIPHPLEAKMLLHVQSTDYAVEAVAEGLERLASICDETLQSFEDCMHRMRCEGAKQE” here?
**A.** not soluble

**Q.** With “GPGSMAGAADPRDEDAKAVNAVLRLPEDDFYAVLGLGEAREDATERDIKNAFRRLSKKYHPDVATGDQDSYRLVYQRVQRAYEVLGDRRKRKIYDILGIDGVTRLEKPQQQQQMNPFFAFFGVGQQADAERGKDMVLLMVVPLEDIYRGAAHTSRFAKRKICRACKGTGARSGEDVVKCPHCQGRGRLAQRVQIAPGFVQQVEQVCPHCQGKGTHVAHMCPVCRGKMVLPGEAVLSVDIEEGLPEGHVLTYELEADQAPGQVPGDVLLTVISAPHPVFHRSGNDLYANVSITLKEALLGFKKTLAHLDGHNVELHWDGVMQNTQQVRIAGEGMPRHHVPSERGDLYITYNVLLPEALTAEQRALFQEHFA” as the sequence, how does the “soluble on expression in E. coli” value read?
**A.** not soluble
